Assay [1] concerns the target T1, Recombinant FOLR1 (rFOLR1), extracellular domain of folate receptor alpha-1 fused to IgG4-Fc. Description: ELISA. On the technique in general: ELISA stands for enzyme-linked immunosorbent assay.
For assay [2], the target named is T2, Recombinant DR5 (rDR5), extracellular domain of DR5/TRAIL-R2 fused to IgG4-Fc. Kind of assay: ELISA.
Assay [3] concerns the target T1, Recombinant FOLR1 (rFOLR1), …. Description: BLI. For orientation: BLI is a label-free optical method that tracks binding on a fibre tip over time.
For assay [4], the target named is T2, Recombinant DR5 (rDR5), extracellular …. Description: BLI.
Assay [5] concerns the target T1, Recombinant FOLR1 (rFOLR1), …. Kind of assay: BLI. The source holds these as a separate data set.
For assay [6], the target named is T2, Recombinant DR5 (rDR5), extracellular …. Description: BLI. This is another data set of the same source.
Assay [7] addresses T1, Recombinant FOLR1 (rFOLR1), …. Description: ELISA. This is another data set of the same source.
Assay [8] has as its target T2, Recombinant DR5 (rDR5), extracellular …. Kind of assay: ELISA. This is another data set of the same source.
For assay [9] the target is unchanged. Description: BLI. The source holds these as a separate data set.
Assay [10] shares this target. Description: BLI. This is another data set of the same source.
The target is the same in assay [11]. Kind of assay: ELISA. The source holds these as a separate data set.
Assay [12] shares this target. Kind of assay: ELISA. The source holds these as a separate data set.

What is called Kd is a measure of binding affinity in units of concentration.

B1: BaCa-2 (knob/hole single-chain-linked bispecific, monovalent anti-FOLR1 and anti-DR5) (bispecific antibody)
chain 1: not shown
chain 2: SSELTQDPAVSVALGQTVRITCQGDSLRSYYASWYQQKPGQAPVLVIYGKNNRPSGIPDRFSGSSSGNTASLTITGAQAEDEADYYCNSRDSSGNHVVFGGGTKLTVLRTVAAPSVFIFPPSDEQLKSGTASVVCLLNNFYPREAKVQWKVDNALQSGNSQESVTEQDSKDSTYSLSSTLTLSKADYEKHKVYACEVTHQGLSSPVTKSFNRGECGGGGSGGGGSGGGGSGGGGSGGGGSGGGGSGGGGSGGGGSGGGGSGGGGSEVQLVQSGGGVERPGGSLRLSCAASGFTFDDYGMSWVRQAPGKGLEWVSGINWNGGSTGYADSVKGRVTISRDNAKNSLYLQMNSLRAEDTAVYYCAKILGAGRGWYFDLWGKGTTVTVSSASTKGPSVFPLAPSSKSTSGGTAALGCLVKDYFPEPVTVSWNSGALTSGVHTFPAVLQSSGLYSLSSVVTVPSSSLGTQTYICNVNHKPSNTKVDKRVEPKSCDKTHTCPPCPAPELLGGPSVFLFPPKPKDTLMISRTPEVTCVVVDVSHEDPEVKFNWYVDGVEVHNAKTKPREEQYNSTYRVVSVLTVLHQDWLNGKEYKCKVSNKALPAPIEKTISKAKGQPREPQVYTLPPSREEMTKNQVSLTCLVKGFYPSDIAVEWESNGQPENNYKTTPPVLDSDGSFFLTSKLTVDKSRWQQGNVFSCSVMHEALHNRFTQKSLSLSPG
B1: the Kd in assay [1] is 0.0887 nM; in assay [2] it was 1.08 nM.

B2: BaCa-1 (Bispecific-Anchored Cytotoxicity-Activator-1; farletuzumab IgG1 with a lexatumumab scFv at the C-terminus of the heavy chain) (bispecific antibody)
heavy: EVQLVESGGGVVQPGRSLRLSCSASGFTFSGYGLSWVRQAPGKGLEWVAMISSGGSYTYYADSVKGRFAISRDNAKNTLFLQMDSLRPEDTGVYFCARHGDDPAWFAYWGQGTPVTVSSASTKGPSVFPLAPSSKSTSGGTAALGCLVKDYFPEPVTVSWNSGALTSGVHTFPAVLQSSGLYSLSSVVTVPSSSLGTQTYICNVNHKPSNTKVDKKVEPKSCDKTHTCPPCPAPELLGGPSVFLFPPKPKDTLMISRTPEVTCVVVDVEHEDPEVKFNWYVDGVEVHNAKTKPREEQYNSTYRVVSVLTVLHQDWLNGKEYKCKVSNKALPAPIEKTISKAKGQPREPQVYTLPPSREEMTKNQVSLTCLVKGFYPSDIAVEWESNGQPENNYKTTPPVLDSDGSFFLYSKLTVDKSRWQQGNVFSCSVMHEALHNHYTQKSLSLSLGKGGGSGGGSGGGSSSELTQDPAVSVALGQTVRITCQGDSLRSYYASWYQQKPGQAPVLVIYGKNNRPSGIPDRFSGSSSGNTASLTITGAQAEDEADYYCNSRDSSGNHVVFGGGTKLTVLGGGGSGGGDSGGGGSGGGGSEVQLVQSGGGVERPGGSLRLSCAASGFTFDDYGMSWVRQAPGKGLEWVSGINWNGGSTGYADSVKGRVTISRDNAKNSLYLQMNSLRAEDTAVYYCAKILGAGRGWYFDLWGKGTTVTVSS
light: DIQLTQSPSSLSASVGDRVTITCSVSSSISSNNLHWYQQKPGKAPKPWIYGTSNLASGVPSRFSGSGSGTDYTFTISSLQPEDIATYYCQQWSSYPYMYTFGQGTKVEIKRTVAAPSVFIFPPSDEQLKSGTASVVCLLNNFYPREAKVQWKVDNALQSGNSQESVTEQDSKDSTYSLSSTLTLSKADYEKHKVYACEVTHQGLSSPVTKSFNRGEC
For the molecule B2, the Kd in [3] was determined as 12 nM; in assay [4] it was 3.1 nM; in [5] it was 12 nM; in [6] it was 3.1 nM; in [1], 0.61 nM; in [2], 0.73 nM. The Kd in assay [7] came out at 1.21 nM; in assay [8] it was 1.41 nM.

B3: BaCa antibody with LALA-Fc (L234A-L235A) mutations in the CH2 domain (bispecific antibody)
heavy: EVQLVESGGGVVQPGRSLRLSCSASGFTFSGYGLSWVRQAPGKGLEWVAMISSGGSYTYYADSVKGRFAISRDNAKNTLFLQMDSLRPEDTGVYFCARHGDDPAWFAYWGQGTPVTVSSASTKGPSVFPLAPSSKSTSGGTAALGCLVKDYFPEPVTVSWNSGALTSGVHTFPAVLQSSGLYSLSSVVTVPSSSLGTQTYICNVNHKPSNTKVDKKVEPKSCDKTHTCPPCPAPEAAGGPSVFLFPPKPKDTLMISRTPEVTCVVVDVEHEDPEVKFNWYVDGVEVHNAKTKPREEQYNSTYRVVSVLTVLHQDWLNGKEYKCKVSNKALPAPIEKTISKAKGQPREPQVYTLPPSREEMTKNQVSLTCLVKGFYPSDIAVEWESNGQPENNYKTTPPVLDSDGSFFLYSKLTVDKSRWQQGNVFSCSVMHEALHNHYTQKSLSLSLGKGGGSGGGSGGGSSSELTQDPAVSVALGQTVRITCQGDSLRSYYASWYQQKPGQAPVLVIYGKNNRPSGIPDRFSGSSSGNTASLTITGAQAEDEADYYCNSRDSSGNHVVFGGGTKLTVLGGGGSGGGDSGGGGSGGGGSEVQLVQSGGGVERPGGSLRLSCAASGFTFDDYGMSWVRQAPGKGLEWVSGINWNGGSTGYADSVKGRVTISRDNAKNSLYLQMNSLRAEDTAVYYCAKILGAGRGWYFDLWGKGTTVTVSS
light: DIQLTQSPSSLSASVGDRVTITCSVSSSISSNNLHWYQQKPGKAPKPWIYGTSNLASGVPSRFSGSGSGTDYTFTISSLQPEDIATYYCQQWSSYPYMYTFGQGTKVEIKRTVAAPSVFIFPPSDEQLKSGTASVVCLLNNFYPREAKVQWKVDNALQSGNSQESVTEQDSKDSTYSLSSTLTLSKADYEKHKVYACEVTHQGLSSPVTKSFNRGEC
On to B3, for which the Kd came to 0.904 nM in assay [7] and 1.65 nM in assay [8].

B4: Lexatumumab (anti-TRAIL-R2/DR5 antibody), recombinant human IgG1 (antibody, V domains shown)
VH: EVQLVQSGGGVERPGGSLRLSCAASGFTFDDYGMSWVRQAPGKGLEWVSGINWNGGSTGYADSVKGRVTISRDNAKNSLYLQMNSLRAEDTAVYYCAKILGAGRGWYFDLWGKGTTVTVSS
VL: SSELTQDPAVSVALGQTVRITCQGDSLRSYYASWYQQKPGQAPVLVIYGKNNRPSGIPDRFSGSSSGNTASLTITGAQAEDEADYYCNSRDSSGNHVVFGGGTKLTVLG
Turning to B4, the Kd is 3.3 nM in assay [9], 3.3 nM in assay [10], 1.26 nM in [11] and 0.518 nM in [12].

B5: BaCa-3 (dual-variable-domain bispecific, lexatumumab variable domains outer, farletuzumab inner) (bispecific antibody)
heavy: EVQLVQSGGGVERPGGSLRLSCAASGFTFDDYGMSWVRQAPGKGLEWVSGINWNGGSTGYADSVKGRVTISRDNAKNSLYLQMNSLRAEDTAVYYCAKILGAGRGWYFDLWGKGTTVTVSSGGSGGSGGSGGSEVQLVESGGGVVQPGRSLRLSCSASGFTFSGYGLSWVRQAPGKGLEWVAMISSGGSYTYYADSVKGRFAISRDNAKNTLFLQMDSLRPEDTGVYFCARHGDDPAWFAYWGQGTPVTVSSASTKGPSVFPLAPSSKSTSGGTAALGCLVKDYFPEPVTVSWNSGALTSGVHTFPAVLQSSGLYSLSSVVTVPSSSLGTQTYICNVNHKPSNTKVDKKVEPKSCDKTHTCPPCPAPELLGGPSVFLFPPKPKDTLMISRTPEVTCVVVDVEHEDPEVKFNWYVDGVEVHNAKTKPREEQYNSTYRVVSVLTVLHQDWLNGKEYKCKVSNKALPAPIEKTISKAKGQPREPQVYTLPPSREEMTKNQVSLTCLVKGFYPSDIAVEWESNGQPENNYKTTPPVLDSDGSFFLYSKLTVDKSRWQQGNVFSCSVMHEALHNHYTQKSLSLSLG
light: SSELTQDPAVSVALGQTVRITCQGDSLRSYYASWYQQKPGQAPVLVIYGKNNRPSGIPDRFSGSSSGNTASLTITGAQAEDEADYYCNSRDSSGNHVVFGGGTKLTVLGGSGGSGGSGGSDIQLTQSPSSLSASVGDRVTITCSVSSSISSNNLHWYQQKPGKAPKPWIYGTSNLASGVPSRFSGSGSGTDYTFTISSLQPEDIATYYCQQWSSYPYMYTFGQGTKVEIKRTVAAPSVFIFPPSDEQLKSGTASVVCLLNNFYPREAKVQWKVDNALQSGNSQESVTEQDSKDSTYSLSSTLTLSKADYEKHKVYACEVTHQGLSSPVTKSFNRGEC
Take B5: the dissociation constant Kd in assay [1] was 0.392 nM; in [2], 0.538 nM.

B6: Farletuzumab (humanized anti-FOLR1 monoclonal antibody), recombinant human IgG1 (antibody, V domains shown)
VH: EVQLVESGGGVVQPGRSLRLSCSASGFTFSGYGLSWVRQAPGKGLEWVAMISSGGSYTYYADSVKGRFAISRDNAKNTLFLQMDSLRPEDTGVYFCARHGDDPAWFAYWGQGTPVTVSS
VL: DIQLTQSPSSLSASVGDRVTITCSVSSSISSNNLHWYQQKPGKAPKPWIYGTSNLASGVPSRFSGSGSGTDYTFTISSLQPEDIATYYCQQWSSYPYMYTFGQGTKVEIKR
In the case of B6, the Kd in assay [3] stood at 15 nM; in assay [5], 15 nM; in assay [1], 0.42 nM; in [7] it was 0.985 nM.

These data come from patent publication US20200283537A1 (published 2020).
